Data from PMC10653929, “Activities, substrate specificity, and genetic interactions of fission yeast Siw14, a cysteinyl-phosphatase-type inositol pyrophosphatase” (mBio, 2023).

Tests used:
SpSiw14; Siw14-(1-287) = molecular target: T1, SpSiw14; Siw14-(1-287) (Schizosaccharomyces pombe, UniProt Q9UUF3); experiment: inhibition of p-nitrophenylphosphate hydrolysis; type: biochemical
T1 construct: full length aa 1-287, E. coli BL21(DE3), His10Smt3 tag removed with Ulp1, monomer by gel filtration
T1 sequence (Q9UUF3 1-287): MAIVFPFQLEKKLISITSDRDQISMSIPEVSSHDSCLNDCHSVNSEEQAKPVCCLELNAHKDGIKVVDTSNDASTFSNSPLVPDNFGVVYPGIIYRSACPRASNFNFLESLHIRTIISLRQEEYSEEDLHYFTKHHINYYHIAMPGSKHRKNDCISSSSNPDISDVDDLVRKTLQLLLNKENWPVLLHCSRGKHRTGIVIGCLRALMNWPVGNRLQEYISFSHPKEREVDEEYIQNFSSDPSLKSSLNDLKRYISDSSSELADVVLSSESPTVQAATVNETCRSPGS
Text: inhibition of p-nitrophenylphosphate hydrolysis on SpSiw14; Siw14-(1-287) | Phosphate and sulfate elicited a similar concentration-dependent inhibition of SpSiw14 phosphatase activity with an IC50

Cys403 = Cys403 (UniProt position 403, RPVIHCRAGVG); experiment: chemical modification; details: cited from earlier work
[1] = substrate: O=P(O)(O)OP(=O)(O)O; experiment: phosphate release by Malachite Green, Michaelis-Menten fit; type: biochemical, Schizosaccharomyces pombe; details: 25 mM Tris-acetate pH 5.0, 1 mM DTT, 37°C, no divalent cation, apparent kcat per PPi consumed
purified protein = substrate: O=[N+]([O-])c1ccc(OP(=O)(O)O)cc1; experiment: purified protein; type: biochemical, Schizosaccharomyces pombe; details: 25 mM Tris-acetate pH 5.0, 1 mM DTT, 37°C, no divalent cation

O=S(=O)(O)O [sulfate]
IC50 (SpSiw14; Siw14-(1-287)): ~5 mM

O=P(O)(O)O [inorganic phosphate]
IC50 (SpSiw14; Siw14-(1-287)): ~5 mM

Yersinia protein tyrosine phosphatase (Yersinia PTPase, YopH/Yop51) (Yersinia sp. (species not stated in the article; inferred Yersinia enterocolitica))
pKa (Cys403): 4.67

B1: SpSiw14; Siw14-(1-287) (Schizosaccharomyces pombe 972h-) (protein)
chain: T1 sequence (Q9UUF3 1-287)
notes: full length aa 1-287, E. coli BL21(DE3), His10Smt3 tag removed with Ulp1, monomer by gel filtration
Km [1]: 1.13 ± 0.34 mM
kcat [1]: 26.6 ± 4.9 min⁻¹
Km (purified protein): 1.64 ± 0.18 mM
kcat (purified protein): 74.4 ± 2.7 min⁻¹
